Laboratory results from patent US20260242735A1 (UNIVERSIT T BASEL, published 2026).

Tests used:
Assay in all cases: flow cytometry, IgG on cells expressing the mutant
[1] = molecular target: human CD33 variant I47E (human, UniProt P20138 18-364)
Experimental: (§1) An alanine scan on human CD33 was performed to the determine the residues on CD33 that are involved in binding to the antibodies investigated. […] Briefly, a mutation library of CD33 was created by high-throughput, site-directed mutagenesis. Each residue was individually mutated to alanine, with alanine codons mutated to serine. The mutant library was arrayed in 384-well microplates and transiently transfected into HEK293-T. Following transfection, cells were incubated with the indicated antibodies (IgG or Fab) at concentrations pre-determined using an independent immunofluorescence titration curve on wild type CD33. […] Binding of each antibody to each mutant clone was determined in duplicates. For each point, background fluorescence was subtracted from the raw data, which were then normalized to antibody reactivity with wild type CD33.
(§2) Antibodies were screened for binding to the human CD33 variants in IgG format. […] For each mutation, background fluorescence was subtracted from the raw data, which were then normalized to antibody reactivity with wild-type CD33.

[2] = molecular target: human CD33 variant I47R (human, UniProt P20138 18-364)
Experimental: as §1, §2

[3] = molecular target: human CD33 variant I47N (human, UniProt P20138 18-364)
Experimental: as §1, §2

[4] = molecular target: human CD33 variant P48H (human, UniProt P20138 18-364)
Experimental: as §1, §2

[5] = molecular target: human CD33 variant P48I (human, UniProt P20138 18-364)
Experimental: as §1, §2

[6] = molecular target: human CD33 variant P48L (human, UniProt P20138 18-364)
Experimental: as §1, §2

[7] = molecular target: human CD33 variant P48D (human, UniProt P20138 18-364)
Experimental: as §1, §2

[8] = molecular target: human CD33 variant P48G (human, UniProt P20138 18-364)
Experimental: as §1, §2

[9] = molecular target: human CD33 variant P48S (human, UniProt P20138 18-364)
Experimental: as §1, §2

[10] = molecular target: human CD33 variant Y49P (human, UniProt P20138 18-364)
Experimental: as §1, §2

[11] = molecular target: human CD33 variant Y49Q (human, UniProt P20138 18-364)
Experimental: as §1, §2

[12] = molecular target: human CD33 variant Y49H (human, UniProt P20138 18-364)
Experimental: as §1, §2

[13] = molecular target: human CD33 variant Y49D (human, UniProt P20138 18-364)
Experimental: as §1, §2

[14] = molecular target: human CD33 variant Y49V (human, UniProt P20138 18-364)
Experimental: as §1, §2

[15] = molecular target: human CD33 variant Y49C (human, UniProt P20138 18-364)
Experimental: as §1, §2

[16] = molecular target: human CD33 variant Y49T (human, UniProt P20138 18-364)
Experimental: as §1, §2

[17] = molecular target: human CD33 variant Y49I (human, UniProt P20138 18-364)
Experimental: as §1, §2

[18] = molecular target: human CD33 variant Y49L (human, UniProt P20138 18-364)
Experimental: as §1, §2

[19] = molecular target: human CD33 variant Y50S (human, UniProt P20138 18-364)
Experimental: as §1, §2

[20] = molecular target: human CD33 variant Y50V (human, UniProt P20138 18-364)
Experimental: as §1, §2

[21] = molecular target: human CD33 variant Y50I (human, UniProt P20138 18-364)
Experimental: as §1, §2

[22] = molecular target: human CD33 variant Y50Q (human, UniProt P20138 18-364)
Experimental: as §1, §2

[23] = molecular target: human CD33 variant Y50D (human, UniProt P20138 18-364)
Experimental: as §1, §2

[24] = molecular target: human CD33 variant Y50G (human, UniProt P20138 18-364)
Experimental: as §1, §2

[25] = molecular target: human CD33 variant D51K (human, UniProt P20138 18-364)
Experimental: as §1, §2

[26] = molecular target: human CD33 variant D51N (human, UniProt P20138 18-364)
Experimental: as §1, §2

[27] = molecular target: human CD33 variant K52G (human, UniProt P20138 18-364)
Experimental: as §1, §2

[28] = molecular target: human CD33 variant K52L (human, UniProt P20138 18-364)
Experimental: as §1, §2

[29] = molecular target: human CD33 variant K52E (human, UniProt P20138 18-364)
Experimental: as §1, §2

[30] = molecular target: human CD33 variant K52T (human, UniProt P20138 18-364)
Experimental: as §1, §2

[31] = molecular target: human CD33 variant I47F (human, UniProt P20138 18-364)
Experimental: as §1, §2

[32] = molecular target: human CD33 variant R122I (human, UniProt P20138 18-364)
Experimental: as §1, §2

[33] = molecular target: human CD33 variant R122F (human, UniProt P20138 18-364)
Experimental: as §1, §2

[34] = molecular target: human CD33 variant Y129S (human, UniProt P20138 18-364)
Experimental: as §1, §2

[35] = molecular target: human CD33 variant I47W (human, UniProt P20138 18-364)
Experimental: as §1, §2

[36] = molecular target: human CD33 variant Y49G (human, UniProt P20138 18-364)
Sequence of human CD33 variant Y49G (P20138 18-364 Y49G limits assumed): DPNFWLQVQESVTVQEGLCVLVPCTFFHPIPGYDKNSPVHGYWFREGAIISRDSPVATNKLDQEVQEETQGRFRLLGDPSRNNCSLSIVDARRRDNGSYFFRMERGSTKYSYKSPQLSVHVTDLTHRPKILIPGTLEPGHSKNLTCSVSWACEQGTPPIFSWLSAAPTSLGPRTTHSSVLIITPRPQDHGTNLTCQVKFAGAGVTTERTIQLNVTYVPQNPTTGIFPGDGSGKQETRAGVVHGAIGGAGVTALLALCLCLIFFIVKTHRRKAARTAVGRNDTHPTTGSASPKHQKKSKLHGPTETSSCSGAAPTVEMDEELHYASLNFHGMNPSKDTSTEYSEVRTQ
Experimental: as §1, §2

Sequence of human CD33 variant Y50Q (P20138 18-364 Y50Q limits assumed): as the sequence (P20138 18-364 Y49G limits assumed) above, with G32Y, Y33Q counted along it
Sequence of human CD33 variant Y50V (P20138 18-364 Y50V limits assumed): as the sequence (P20138 18-364 Y49G limits assumed) above, with G32Y, Y33V counted along it
Sequence of human CD33 variant K52T (P20138 18-364 K52T limits assumed): as the sequence (P20138 18-364 Y49G limits assumed) above, with G32Y, K35T counted along it
Sequence of human CD33 variant I47N (P20138 18-364 I47N limits assumed): as the sequence (P20138 18-364 Y49G limits assumed) above, with I30N, G32Y counted along it
Sequence of human CD33 variant P48G (P20138 18-364 P48G limits assumed): as the sequence (P20138 18-364 Y49G limits assumed) above, with P31G, G32Y counted along it
Sequence of human CD33 variant P48I (P20138 18-364 P48I limits assumed): as the sequence (P20138 18-364 Y49G limits assumed) above, with P31I, G32Y counted along it
Sequence of human CD33 variant Y49V (P20138 18-364 Y49V limits assumed): as the sequence (P20138 18-364 Y49G limits assumed) above, with G32V counted along it
Sequence of human CD33 variant P48H (P20138 18-364 P48H limits assumed): as the sequence (P20138 18-364 Y49G limits assumed) above, with P31H, G32Y counted along it
Sequence of human CD33 variant I47F (P20138 18-364 I47F limits assumed): as the sequence (P20138 18-364 Y49G limits assumed) above, with I30F, G32Y counted along it
Sequence of human CD33 variant P48L (P20138 18-364 P48L limits assumed): as the sequence (P20138 18-364 Y49G limits assumed) above, with P31L, G32Y counted along it
Sequence of human CD33 variant I47E (P20138 18-364 I47E limits assumed): as the sequence (P20138 18-364 Y49G limits assumed) above, with I30E, G32Y counted along it
Sequence of human CD33 variant Y49C (P20138 18-364 Y49C limits assumed): as the sequence (P20138 18-364 Y49G limits assumed) above, with G32C counted along it
Sequence of human CD33 variant Y49L (P20138 18-364 Y49L limits assumed): as the sequence (P20138 18-364 Y49G limits assumed) above, with G32L counted along it

| Mean % WT Binding [1] | Mean % WT Binding [2] | Mean % WT Binding [3] | Mean % WT Binding [4] | Mean % WT Binding [5] | Mean % WT Binding [6] | Mean % WT Binding [7] | Mean % WT Binding [8] | Mean % WT Binding [9] | Mean % WT Binding [10] | Mean % WT Binding [11] | Mean % WT Binding [12] | Mean % WT Binding [13] | Mean % WT Binding [14] | Mean % WT Binding [15] | Mean % WT Binding [16] | Mean % WT Binding [17] | Mean % WT Binding [18] | Mean % WT Binding [19] | Mean % WT Binding [20] | Binder | further results |
| --- | --- | --- | --- | --- | --- | --- | --- | --- | --- | --- | --- | --- | --- | --- | --- | --- | --- | --- | --- | --- | --- |
| 109 % of WT | 83.2 % of WT | 91.6 % of WT | 87.6 % of WT | 122 % of WT | 111 % of WT | 100 % of WT | 108 % of WT | 100 % of WT | 92.1 % of WT | 102 % of WT | 92.1 % of WT | 94.4 % of WT | 106 % of WT | 59.2 % of WT | 96.5 % of WT | 109 % of WT | 93.8 % of WT | 97.2 % of WT | 108 % of WT | Refmab #3 (antibody, human IgG1, V domains shown, Tested in IgG format; human IgG1 Fc silent (PG-LALA)) VH: QVQLVQSGAEVKKPGSSVKVSCKASGYTFTDYNMHWVRQAPGQGLEWIGYIYPYNGGTGYNQKFKSKATITADESTNTAYMELSSLRSEDTAVYYCARGRPAMDYWGQGTLVTVSS VL: DIQMTQSPSSLSASVGDRVTITCRASESVDNYGISFMNWFQQKPGKAPKLLIYAASNQGSGVPSRFSGSGSGTDFTLTISSLQPDDFATYYCQQSKEVPWTFGQGTKVEIK | Mean % WT Binding [36]: 108 % of WT; Mean % WT Binding [21]: 92.8 % of WT; Mean % WT Binding [22]: 95.4 % of WT; Mean % WT Binding [23]: 100 % of WT; Mean % WT Binding [24]: 91.2 % of WT; Mean % WT Binding [25]: 88.9 % of WT; Mean % WT Binding [26]: 107 % of WT; Mean % WT Binding [27]: 106 % of WT; Mean % WT Binding [28]: 94.9 % of WT; Mean % WT Binding [29]: 106 % of WT; Mean % WT Binding [30]: 103 % of WT; Mean % WT Binding [31]: 102 % of WT; Mean % WT Binding [32]: 112 % of WT; Mean % WT Binding [33]: 106 % of WT; Mean % WT Binding [35]: 112 % of WT |
| 54.8 % of WT | 66.2 % of WT | 74.8 % of WT | 2.9 % of WT | 31.9 % of WT | 1 % of WT | 2 % of WT | 0.4 % of WT | 0.5 % of WT | 1.2 % of WT | 91.9 % of WT | 95.1 % of WT | 2.5 % of WT | 46.9 % of WT | 0.5 % of WT | 2.8 % of WT | 94 % of WT | 110 % of WT | 2.9 % of WT | 1.7 % of WT | Refmab #4 (antibody, human IgG1, V domains shown, Tested in IgG format; human IgG1 Fc silent (PG-LALA)) VH: QVQLVQSGAEVKKPGESVKVSCKASGYTFTNYGMNWVKQAPGQGLEWMGWINTYTGEPTYADKFQGRVTMTTDTSTSTAYMEIRNLGGDDTAVYYCARWSWSDGYYVYFDYWGQGTSVTVSS VL: DIVMTQSPDSLTVSLGERTTINCKSSQSVLDSSTNKNSLAWYQQKPGQPPKLLLSWASTRESGIPDRFSGSGSGTDFTLTIDSPQPEDSATYYCQQSAHFPITFGQGTRLEIK | Mean % WT Binding [36]: 54.9 % of WT; Mean % WT Binding [21]: 4.5 % of WT; Mean % WT Binding [22]: 3.2 % of WT; Mean % WT Binding [23]: 0.9 % of WT; Mean % WT Binding [24]: 4 % of WT; Mean % WT Binding [25]: 42 % of WT; Mean % WT Binding [26]: 76.4 % of WT; Mean % WT Binding [27]: 69.5 % of WT; Mean % WT Binding [28]: 88.1 % of WT; Mean % WT Binding [29]: 51.4 % of WT; Mean % WT Binding [30]: 83.5 % of WT; Mean % WT Binding [31]: 102 % of WT; Mean % WT Binding [32]: 85.8 % of WT; Mean % WT Binding [33]: 58.1 % of WT; Mean % WT Binding [34]: 107 % of WT; Mean % WT Binding [35]: 86.8 % of WT |

More lines, now with the values behind:

| Binder | Mean % WT Binding [1] | Mean % WT Binding [2] | Mean % WT Binding [3] | Mean % WT Binding [4] | Mean % WT Binding [5] | Mean % WT Binding [6] | Mean % WT Binding [7] | Mean % WT Binding [8] | Mean % WT Binding [9] | Mean % WT Binding [10] | Mean % WT Binding [11] | Mean % WT Binding [12] | Mean % WT Binding [13] | Mean % WT Binding [14] | Mean % WT Binding [15] | Mean % WT Binding [16] | Mean % WT Binding [17] | Mean % WT Binding [18] | Mean % WT Binding [19] | Mean % WT Binding [20] | further results |
| --- | --- | --- | --- | --- | --- | --- | --- | --- | --- | --- | --- | --- | --- | --- | --- | --- | --- | --- | --- | --- | --- |
| Refmab #2 (antibody, human IgG1, V domains shown, Tested in IgG format; human IgG1 Fc silent (PG-LALA)) VH: QVQLVQSGAEVKKPGSSVKVSCKASGGTFSDYAISWVRQAPGQGLEWMGRIIPILGVADYAQKFQGRVTITADKSTRTAYMELSSLRSEDTAVYYCARNWADAFDIWGQGTMVTVSS VL: DIQLTQSPSSLSASVGDRVTITCRASQGISSVLAWYQQKPGKAPKLLIYDASSLESGVPSRFSGSGSGTDFTLTISSLQPEDFATYYCQQFDSSITFGQGTKLEIK | 0.5 % of WT | 1.6 % of WT | 0.4 % of WT | 81.9 % of WT | 81.9 % of WT | 90.4 % of WT | 10.4 % of WT | 80.8 % of WT | 92.1 % of WT | 6.9 % of WT | 17.4 % of WT | 17.2 % of WT | 1.4 % of WT | 90.4 % of WT | 3.2 % of WT | 76.3 % of WT | 94.3 % of WT | 108 % of WT | 123 % of WT | 126 % of WT | Mean % WT Binding [21]: 126 % of WT; Mean % WT Binding [22]: 113 % of WT; Mean % WT Binding [23]: 112 % of WT; Mean % WT Binding [24]: 104 % of WT; Mean % WT Binding [25]: 2.7 % of WT; Mean % WT Binding [26]: 96.7 % of WT; Mean % WT Binding [27]: 25.4 % of WT; Mean % WT Binding [28]: 74.8 % of WT; Mean % WT Binding [29]: 52.4 % of WT; Mean % WT Binding [30]: 120 % of WT; Mean % WT Binding [31]: 2.2 % of WT; Mean % WT Binding [32]: 1.1 % of WT; Mean % WT Binding [33]: 1.2 % of WT; Mean % WT Binding [34]: 102 % of WT; Mean % WT Binding [35]: 0.6 % of WT |
| Refmab #1 (antibody, human IgG1, V domains shown, Tested in IgG format; human IgG1 (Absolute Antibody hP67.6, Cat. No. Ab00283-10.0); also called hP67.6) VH: EVQLVQSGAEVKKPGSSVKVSCKASGYTITDSNIHWVRQAPGQSLEWIGYIYPYNGGTDYNQKFKNRATLTVDNPTNTAYMELSSLRSEDTAFYYCVNGNPWLAYWGQGTLVTVSS VL: DIQLTQSPSTLSASVGDRVTITCRASESLDNYGIRFLTWFQQKPGKAPKLLMYAASNQGSGVPSRFSGSGSGTEFTLTISSLQPDDFATYYCQQTKEVPWSFGQGTKVEVK | 101 % of WT | 96.1 % of WT | 87.8 % of WT | 97.4 % of WT | 107 % of WT | 102 % of WT | 109 % of WT | 95 % of WT | 97.5 % of WT | 92.5 % of WT | 105 % of WT | 89.1 % of WT | 93.4 % of WT | 101 % of WT | 67.2 % of WT | 108 % of WT | 109 % of WT | 100 % of WT | 101 % of WT | 94.9 % of WT | Mean % WT Binding [36]: 107 % of WT; Mean % WT Binding [21]: 99.2 % of WT; Mean % WT Binding [22]: 93.9 % of WT; Mean % WT Binding [23]: 115 % of WT; Mean % WT Binding [24]: 92.8 % of WT; Mean % WT Binding [25]: 90.7 % of WT; Mean % WT Binding [26]: 99 % of WT; Mean % WT Binding [27]: 98.8 % of WT; Mean % WT Binding [28]: 97.6 % of WT; Mean % WT Binding [29]: 98.6 % of WT; Mean % WT Binding [30]: 102 % of WT; Mean % WT Binding [31]: 101 % of WT; Mean % WT Binding [32]: 110 % of WT; Mean % WT Binding [33]: 110 % of WT; Mean % WT Binding [34]: 68.7 % of WT; Mean % WT Binding [35]: 111 % of WT |
